Data published in US20220242906A1.

Biological target: elongation initiation factor 4E (eIF4E), P06730
Experiment: SPR (Biacore T100), eIF4E immobilised on CM5 chip, peptide as analyte
Details: remark: other sources report otherwise

elongation initiation factor 4E (eIF4E), P06730, sequence (P06730 2-217 limits assumed): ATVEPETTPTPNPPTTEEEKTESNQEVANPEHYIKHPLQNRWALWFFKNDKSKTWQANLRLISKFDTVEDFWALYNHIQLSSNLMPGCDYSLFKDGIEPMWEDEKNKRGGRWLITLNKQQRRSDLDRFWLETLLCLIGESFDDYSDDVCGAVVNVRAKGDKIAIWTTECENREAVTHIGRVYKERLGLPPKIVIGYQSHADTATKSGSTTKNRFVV

Binder | Kd
ACAMGFFQDCG (HELM PEPTIDE1{A.C.A.M.G.F.F.Q.D.C.G.[am]}$PEPTIDE1,PEPTIDE1,2:R3-10:R3$$$V2.0; SMILES CSCC[C@@H]1NC(=O)[C@H](C)NC(=O)[C@@H](NC(=O)[C@H](C)N)CSSC[C@@H](C(=O)NCC(N)=O)NC(=O)[C@H](CC(=O)O)NC(=O)[C@H](CCC(N)=O)NC(=O)[C@H](Cc2ccccc2)NC(=O)[C@H](Cc2ccccc2)NC(=O)CNC1=O) [EE-2A] | 11 µM
ACEMAFFQDCG (HELM PEPTIDE1{A.C.E.M.A.F.F.Q.D.C.G.[am]}$PEPTIDE1,PEPTIDE1,2:R3-10:R3$$$V2.0; SMILES CSCC[C@@H]1NC(=O)[C@H](CCC(=O)O)NC(=O)[C@@H](NC(=O)[C@H](C)N)CSSC[C@@H](C(=O)NCC(N)=O)NC(=O)[C@H](CC(=O)O)NC(=O)[C@H](CCC(N)=O)NC(=O)[C@H](Cc2ccccc2)NC(=O)[C@H](Cc2ccccc2)NC(=O)[C@H](C)NC1=O) [EE-2C] | 32 µM
